From patent US20090202574A1, “METHODS OF IMMUNE OR HAEMATOLOGICAL ENHANCEMENT, INHIBITING TUMOUR FORMATION OR GROWTH, AND TREATING OR PREVENTING CANCER” (priority 2004, published 2009)

B1: natural bLf: bovine lactoferrin extract from skim milk with natural levels of iron-saturation of approximately 5 to 15% (protein, UniProt P24627 20-708, looked up)
Lactotransferrin: APRKNVRWCTISQPEWFKCRRWQWRMKKLGAPSITCVRRAFALECIRAIAEKKADAVTLDGGMVFEAGRDPYKLRPVAAEIYGTKESPQTHYYAVAVVKKGSNFQLDQLQGRKSCHTGLGRSAGWIIPMGILRPYLSWTESLEPLQGAVAKFFSASCVPCIDRQAYPNLCQLCKGEGENQCACSSREPYFGYSGAFKCLQDGAGDVAFVKETTVFENLPEKADRDQYELLCLNNSRAPVDAFKECHLAQVPSHAVVARSVDGKEDLIWKLLSKAQEKFGKNKSRSFQLFGSPPGQRDLLFKDSALGFLRIPSKVDSALYLGSRYLTTLKNLRETAEEVKARYTRVVWCAVGPEEQKKCQQWSQQSGQNVTCATASTTDDCIVLVLKGEADALNLDGGYIYTAGKCGLVPVLAENRKSSKHSSLDCVLRPTEGYLAVAVVKKANEGLTWNSLKDKKSCHTAVDRTAGWNIPMGLIVNQTGSCAFDEFFSQSCAPGADPKSRLCALCAGDDQGLDKCVPNSKEKYYGYTGAFRCLAEDVGDVAFVKNDTVWENTNGESTADWAKNLNREDFRLLCLDGTRKPVTEAQSCHLAVAPNHAVVSRSDRAAHVKQVLLHQQALFGKNGKNCPDKFCLFKSETKNLLFNDNTECLAKLGGRPTYEEYLGTEYVTAIANLKKCSTSPLLEACAFLTR
B2: bovine lactoferrin: bovine lactoferrin as reported in WO 03/099323, compared with recombinant human lactoferrin (protein)
chain: B1 Lactotransferrin
modifications: Bovine Lactoferrin
notes: bovine lactoferrin as reported in WO 03/099323, compared with recombinant human lactoferrin

Tests used:
IL-18 [1] = assay: IL-18 production by cultured intestinal loops; type: cell-based, mice; conditions: Example 20; 400 and 800 μg/ml; 48 h; vs bovine serum albumin control protein
Procedure: Cytokine levels in the supernatants of homogenates of the small intestine were determined using a “sandwich” ELISA kit (Endogen, Woburn, Mass.). They were detected within standard curve ranges of 15-375 pg/ml for IL-4, 0-2450 pg/ml for IL-5, 15-1000 pg/ml for TNF-α, 0-3000 pg/ml for IFN-γ, 37-3000 pg/ml for IL-10, 31.3-2000 pg/ml for IL-12, and 31.3-2000 pg/ml for IL-18, respectively. Quantification of nitrite, indicative of NO production, was carried out by the Griess reaction (Sigma, USA). The results are expressed as the mean nitrite concentration (μM)±SD.
100% Fe-saturated Lf, natural Lf (less than 20% iron saturated), and bovine serum albumin control were added at 400 and 800 μg/ml to intestinal loops (2.5 cm segments of the small intestine) prepared from healthy 6 to 7 week-old female mice, which were kept in culture for 48 h. IL-18 levels released by the intestinal loops, and present in the supernatants of homogenates of the small intestine were determined using a “sandwich” ELISA kit as described above.

EL-4 target cells = assay: Anti-tumour CTL and/or NK cell cytolytic activity of splenocytes against EL-4 target cells; conditions: Example 1; splenocytes at day 42; vs control diet
Procedure: Splenocytes were harvested 28 days following tumour cell injection, as specified. They were incubated at 37° C. with EL-4 target cells in graded E:T ratios in 96-well round-bottom plates. After a 4-hour incubation, 50 μl of supernatant was collected, and lysis was measured using the Cyto Tox 96 Assay Kit (Promega, Madison, Wis., USA). Background controls for non-specific target and effector cell lysis were included. After background subtraction, percentage of cell lysis was calculated using the formula: 100× (experimental-spontaneous effector-spontaneous target/maximum target-spontaneous target).

EL-4 tumours = assay: EL-4 tumour growth in mice (s.c. flank tumour model); type: in vivo, C57BL/6 mice; conditions: Example 1; oral diet; day 42; vs control diet
IL-18 [2] = conditions: WO 03/099323, cited from earlier work

Molecule | increase in the levels of IL-18 in the intestine (IL-18 [1]) | anti-tumour CTL and/or NK cell activity of splenocytes (EL-4 target cells) | inhibition in tumour size (EL-4 tumours) | serum levels of IL-18 (IL-18 [2]) | intestinal IL-18 levels (IL-18 [2]; compared with recombinant human lactoferrin)
B1 | ~2 fold | slightly enhanced | 11% | – | –
B2 | – | – | – | did not increase | lesser increase
